The values that follow come from patent publication US20140193417A1 (LUDWIG INSTITUTE FOR CANCER RESEARCH, published 2014).

For assay [1], the target named is T1, murine NaPi2b protein (mouse, UniProt Q9DBP0 1-697).
T1 construct: also called the murine protein; murine counterpart
T1 sequence (looked up): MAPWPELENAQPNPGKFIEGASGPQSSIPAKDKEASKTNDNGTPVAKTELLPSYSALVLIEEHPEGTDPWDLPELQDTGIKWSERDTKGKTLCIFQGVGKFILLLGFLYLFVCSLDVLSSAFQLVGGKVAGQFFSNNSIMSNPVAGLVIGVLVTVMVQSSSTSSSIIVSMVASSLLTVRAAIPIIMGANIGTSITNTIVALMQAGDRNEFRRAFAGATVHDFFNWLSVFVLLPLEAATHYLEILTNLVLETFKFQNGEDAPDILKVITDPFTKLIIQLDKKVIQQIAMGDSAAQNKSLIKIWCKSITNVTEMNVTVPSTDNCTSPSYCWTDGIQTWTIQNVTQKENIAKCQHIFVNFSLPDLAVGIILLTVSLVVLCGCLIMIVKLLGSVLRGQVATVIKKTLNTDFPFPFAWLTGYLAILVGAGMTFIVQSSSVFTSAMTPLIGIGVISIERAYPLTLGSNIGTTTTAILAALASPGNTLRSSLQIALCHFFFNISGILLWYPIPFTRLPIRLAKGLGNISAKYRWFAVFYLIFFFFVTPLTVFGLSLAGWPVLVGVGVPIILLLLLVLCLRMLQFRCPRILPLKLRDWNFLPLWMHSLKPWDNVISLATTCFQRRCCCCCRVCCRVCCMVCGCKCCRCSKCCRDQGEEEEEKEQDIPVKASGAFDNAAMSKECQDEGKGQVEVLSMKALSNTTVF
In words: Western blot of mouse tissues (data not shown).

Assay [2] addresses T2, NaPi2b mutant T330V expressed in stably transfected HEK293 cells (pcDNA3.1/NaPi2b-T330V) (human, UniProt O95436 1-690).
T2 construct: whole, on cells; Made by site-directed mutagenesis of pcDNA3.1/NaPi2b; also called mutant form T330V; not shown: EE-tag
T2 sequence (looked up): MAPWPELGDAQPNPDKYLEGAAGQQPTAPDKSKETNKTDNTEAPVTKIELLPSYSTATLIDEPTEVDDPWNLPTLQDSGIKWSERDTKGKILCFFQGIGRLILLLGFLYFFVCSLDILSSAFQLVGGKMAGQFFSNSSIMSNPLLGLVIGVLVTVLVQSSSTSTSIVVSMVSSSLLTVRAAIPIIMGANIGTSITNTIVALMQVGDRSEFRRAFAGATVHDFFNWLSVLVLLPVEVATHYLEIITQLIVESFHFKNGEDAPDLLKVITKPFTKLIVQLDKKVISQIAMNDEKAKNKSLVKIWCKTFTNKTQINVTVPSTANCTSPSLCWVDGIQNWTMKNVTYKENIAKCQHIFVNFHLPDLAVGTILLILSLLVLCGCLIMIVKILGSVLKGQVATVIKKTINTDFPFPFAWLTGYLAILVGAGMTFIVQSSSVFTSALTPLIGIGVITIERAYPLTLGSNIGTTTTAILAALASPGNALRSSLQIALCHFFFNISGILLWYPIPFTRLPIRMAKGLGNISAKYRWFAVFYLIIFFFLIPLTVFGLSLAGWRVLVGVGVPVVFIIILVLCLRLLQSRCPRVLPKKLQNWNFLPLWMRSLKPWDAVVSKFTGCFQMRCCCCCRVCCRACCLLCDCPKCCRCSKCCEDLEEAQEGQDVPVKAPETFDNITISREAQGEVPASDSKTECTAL
Kind of assay: Western blot of lysates of stably transfected HEK293 cells. Here is the method:
Stably transfected HEK293 cells were lysed in buffer containing 10 mM Tris-HCl, pH 7.5, 150 mM NaCl, 10 mM MgCL₂, 0,5% NP-40, and a mixture of Halt Protease Inhibitor Cocktail (Pierce, USA). Protein concentration was measured by Bradford assay (Pierce, USA), and equal amounts of proteins (10 μg) were separated in 8% SDS-PAGE and blotted to polyvinylidene difluoride (PVDF) membrane (Millipore, USA). The membrane was blocked with 3% BSA in PBS (phosphate-saline buffer) containing 0.1% Tween-20 (PBST) for 1 h. Anti-NaPi2b and anti-EE-tag antibodies were incubated with membranes at 4° C. overnight. Generation of monoclonal antibodies against the extracellular loop of transporter was previously described. After washing with PBST, HRP-conjugated goat anti-mouse IgG 1:5000 (Promega, USA) was added to the membrane for 1 h at RT. Western blots were developed using the ECL system (Amersham, Sweden) and then exposed to Agfa X-ray film.
The expression of NaPi2b (wild type and mutant forms) in HEK293 was confirmed by Western blot analysis of total cell lysates with anti-EE monoclonal antibody (FIG. 22A) or anti-NaPi2b monoclonal antibodies (FIG. 22B).
For orientation: Immunoblotting shows a protein as a band on a membrane.

The target of assay [3] is T3, NaPi2b 317-340 array peptide Ac-PSTANCTSPSLCWTDGIQNWTMKN-amide (human, N-terminal acetyl (Ac-), C-terminal amide).
T3 peptide: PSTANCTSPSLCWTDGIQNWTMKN
In words: synthetic peptide membrane array, 1 ug/ml antibody. Here is the method:
(§1) For epitope mapping, membranes were incubated for 3 hours with 1 ug/ml primary antibody, followed by incubation with HRP-labeled goat anti-mouse polyclonal antibodies (Jackson ImmunoResearch Laboratories, West Grove, Pa.) for 2 hours. Bound antibody was visualized by chemiluminescence (Western Lightning Plus). For epitope mapping under reducing condition, membranes were incubated in 1 mM DTT for 1 hour at room temperature, and then washed extensively prior to antibody incubation.

Assay [4] has as its target T4, NaPi2b 320-340 array peptide Ac-ANCTSPSLCWTDGIQNWTMKN-amide (human, N-terminal acetyl (Ac-), C-terminal amide).
T4 peptide: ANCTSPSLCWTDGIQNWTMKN
In words: synthetic peptide membrane array, 1 ug/ml antibody. Here is the method:
as §1

Assay [5] addresses T5, NaPi2b 323-340 array peptide Ac-TSPSLCWTDGIQNWTMKN-amide (human).
T5 peptide: Ac-TSPSLCWTDGIQNWTMKN-NH2
In words: synthetic peptide membrane array, 1 ug/ml antibody. Here is the method: as §1

The target in assay [6] is T6, T330M variant 312-340 peptide (SLC34A p312-340 T330M) (human).
T6 construct: also called T330M P312-340 peptide
T6 peptide: SPSLCWMDGIQNWTM
In words: dot blot. An excerpt: Corut et al have studied and identified mutations in SLC34A2 that are predicted to cause pulmonary alveolar microlithiasis and are possibly also associated with testicular microlithiasis (Corut, A. et al (2006) AM J. Hum Genet. 79:650-656). While analyzing normal controls, Corut identified a novel variant c.989C-T (p. T330M), whereby threonine is replaced with methionine, substituting a polar residue with a non-polar residue. This is presumed to inactivate the SLC34A2 protein. This T330M mutation is located within the MX35 epitope peptide region of SLC34A2. […] While MX35, L2 and L3 antibodies bind p312-340 peptide SEQ ID NO: 8, none of these antibodies bind T330M P312-340 peptide by dot blot analysis.

B1: Murine mAb MX35 (IgG1) (antibody, V domains shown)
VH: QVQLKQSGAELVKPGASVKMSCKASGYTFTGYNIHWVKQTPGQGLEWIGAIYPGNGDTSYKQKFRGKASLTADTSSSTVYMQLSSLTSEDSAVYYCARGETARATFAYWGQGTLVTVSA
VL: DIQMTQTTSSLPASLGDRVTISCSASQDIGNFLNWYQQKPDGTVKVLIYYTSSLYSGVPSRFSGSGSGTDYSLTISNLEPEDIATYYCQQYSKLPLTFGAGTKLELKR
notes: also called MX35 MAb; monoclonal antibody MX35
Consider B1, for which the binding result is “no binding” in assay [1]; “no binding” in assay [2]; “binds” in assay [3]; “binds” in assay [4]; “binds” in assay [5]; “no binding” in assay [6].
